This note sets out measurements from patent US20240343817A1 (STAIDSON BEIJING BIOPHARMACEUTICALS, published 2024).

Residue numbers refer to the chain shown, from its start.

As usually defined, the EC50 (read off the curve) is the concentration giving half of the maximal effect. As a reminder, the EC50 is the concentration needed to bring the measured effect to its halfway point. For orientation: Kd means the constant that tells how readily two partners part at equilibrium. As usually defined, the koff is the rate constant with which the complex falls apart. As a reminder, the kon is the second-order rate constant of association.

In assay [1] the target is Rhesus monkey CD40 extracellular domain (recombinant) (Rhesus monkey) (UniProt F6SNI1). Description: ELISA, plate coated with recombinant rhesus monkey CD40 extracellular domain, antibody in serial dilution, anti-human IgG-HRP, OD450. A general note: In an ELISA, binding on a coated surface is turned into a signal by an enzyme label.
Assay [2] deals with T1, human CD40 on cells (human, UniProt P25942 21-277). Description: cell-based or functional assay.
The target of assay [3] is human CD40 extracellular domain (recombinant) (human) (UniProt P25942). Nature of the assay: ELISA, plate coated with recombinant human CD40 extracellular domain, antibody in serial dilution, anti-human IgG-HRP, OD450.
Assay [4] has the same target. Nature of the assay: ELISA; CD40 extracellular domain coated 0.1 µg/well, antibody titrated from 10 µg/mL 1:3, anti-human IgG-HRP.
For assay [5], the target named is Rhesus monkey CD40 extracellular domain (recombinant) (Rhesus monkey) (UniProt F6SNI1). Described as above.
Assay [6] deals with human CD40 extracellular domain (recombinant) (human) (UniProt P25942). Description: SPR, Biacore 8K; antibody on CM5 chip, hCD40 at various concentrations. (SPR reads the build-up and loss of mass on a sensor chip optically.)
Assay [7] concerns the target T2, human CD40 extracellular domain (recombinant) (human, UniProt P25942 21-193).
T2 construct: Extracellular domain expressed in 293F cells; also called hCD40; CD40-His; not shown: tag (His, Avi-His, mouse Fc or human Fc)
Nature of the assay: affinity assay not described (data not shown).

Assay [8] addresses T2, human CD40 extracellular domain …. Description: SPR, Biacore 8K; antibody on CM5 chip, hCD40 at various concentrations. The method, then:
The binding affinity of the optimized anti-CD40 antibodies with human […] was characterized using Biacore 8K (GE). Anti-CD4 (antibodies were stabilized on sensor chip CM5 The affinities for hCD40 at various concentrations were measured. Using the SPR technology, the association and dissociation rates were measured, and binding affinity was determined.

Assay [9] addresses T3, Rhesus monkey CD40 extracellular domain (recombinant) (Rhesus monkey, UniProt F6SNI1 21-193).
T3 construct: extracellular domain; also called RheCD40
Description: ELISA, plate coated with recombinant rhesus monkey CD40 extracellular domain, antibody (human IgG4 format) in serial dilution, anti-human IgG-HRP, OD450. On the procedure: (§1) ELISA Binding Assay: The selected monoclonal full-length antibodies D1, D2, D3, D5, D6, or D7 were subjected to binding assays with CD40 extracellular domain of different species, respectively. The assay was designed to identify full-length antibodies that cross-reacted with CD40 of different species. Briefly, the human or Rhesus monkey CD40 prepared in example 1 was dissolved in PBS and coated on […] with 0.1 μg/well followed by incubation at 4° C. overnight. The 96-well plates were washed with TBST before adding antibodies, blocked with 5% milk for 1-2 h at 37° C., and washed again with TBST. Firstly, each antibody sample was diluted to 10 μg/mL, and then serially diluted at a 1:3 ratio. 100 μL of serially diluted antibodies were added to each well and incubated for 1 h at 37° C. After washing with TBST for 6 times, 100 μL of the secondary antibody (goat anti-human IgG-HRP (Sigma. A8667)) was added to each well and incubated for 1 h at 37° C. After washing with TBST for 3 times, TMB was added with 100 μL/well and incubated for 10-20 minutes at 37° C. 2M H₂SO₄ was used to stop the reaction and plates were read for the absorbance at 450 nm. The ELISA results were then analyzed and the binding curves were generated by PRISM.
(§2) The biding affinity of the optimized full length CD40 antibodies with human or rhesus monkey CD40 was evaluated by Elisa according to the corresponding protocol as described in Example 2, and ASKP1240 was used as control.

For assay [10], the target named is T1, human CD40 on cells. Nature of the assay: cell-based or functional assay. This is another data set of the same source.
The target of assay [11] is T2, human CD40 extracellular domain …. Description: ELISA, plate coated with recombinant human CD40 extracellular domain, antibody (human IgG4 format) in serial dilution, anti-human IgG-HRP, OD450. On the procedure: as §1, §2
The target of a further assay is T4, human TNFRSF11A (human, UniProt Q9Y6Q6 30-212).
T4 construct: Bought protein coated on the ELISA plate; also called TNFRSF11A (Sino biological, 16078-h08h)
T4 sequence (looked up): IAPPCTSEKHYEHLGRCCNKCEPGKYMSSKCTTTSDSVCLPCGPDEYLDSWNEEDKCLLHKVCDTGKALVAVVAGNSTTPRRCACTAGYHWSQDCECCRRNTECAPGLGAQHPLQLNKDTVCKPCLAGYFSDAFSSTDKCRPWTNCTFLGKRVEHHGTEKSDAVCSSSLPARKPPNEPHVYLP
Description: ELISA; protein coated, antibody titrated, anti-human IgG-HRP. On the procedure: (§3) The cross-reactivities between anti-CD40 antibodies and the protein homologous with CD40 were detected. It was well known that there is high sequence homology among TNFR superfamily members. When compared with CD40 sequence. TNFRSF11A (38.95% homology) and INFR2 (37.20% homology) are with the highest homology. The cross-reactions between the two proteins and anti-CD40 antibody were detected by ELISA. respectively. Briefly, human TNFRSF11A (Sino biological, 16078-h08h), human TNFR2 (Sino biological, 10417-h08h) or the human CD40 extracellular domain protein prepared in example 1 was coated on ELISA plate and incubated at 4° C. overnight, respectively. After serial dilution, the optimized full-length anti-CD40 antibodies were added into 96 well plates and incubated respectively. After washing with TBST solution, the anti-human IgG-HRP antibody was added and incubated at RT. After washing with PBST, TMB was added into each well for development. Plates were read for the absorbance at 450 nm.

The next assay has as its target T5, human TNFR2 (human, UniProt P20333 23-257).
T5 construct: Bought protein coated on the ELISA plate; also called TNFR2 (Sino biological, 10417-h08h); INFR2
T5 sequence (looked up): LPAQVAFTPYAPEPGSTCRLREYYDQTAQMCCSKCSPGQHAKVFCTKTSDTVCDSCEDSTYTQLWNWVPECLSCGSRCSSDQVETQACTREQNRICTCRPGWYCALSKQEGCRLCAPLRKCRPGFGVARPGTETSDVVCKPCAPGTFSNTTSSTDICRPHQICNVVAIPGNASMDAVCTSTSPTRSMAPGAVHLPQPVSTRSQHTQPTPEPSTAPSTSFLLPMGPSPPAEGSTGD
The assay is described as above. The method, then: as §3

T1 sequence (P25942 21-277 limits assumed): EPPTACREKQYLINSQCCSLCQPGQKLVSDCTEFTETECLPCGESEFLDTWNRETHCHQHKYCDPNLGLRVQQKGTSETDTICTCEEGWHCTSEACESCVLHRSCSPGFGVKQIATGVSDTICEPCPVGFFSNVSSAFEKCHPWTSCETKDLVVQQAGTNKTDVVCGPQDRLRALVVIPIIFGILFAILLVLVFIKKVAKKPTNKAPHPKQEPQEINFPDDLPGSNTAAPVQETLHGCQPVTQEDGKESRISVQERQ
Sequence of human CD40 extracellular domain (recombinant) (human) (P25942 21-193): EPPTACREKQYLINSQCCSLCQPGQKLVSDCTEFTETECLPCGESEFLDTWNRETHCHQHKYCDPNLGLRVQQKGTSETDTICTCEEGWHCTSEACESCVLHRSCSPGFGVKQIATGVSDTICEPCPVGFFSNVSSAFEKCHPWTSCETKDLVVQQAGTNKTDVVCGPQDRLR
T2 sequence (P25942 21-193): as above
Sequence of Rhesus monkey CD40 extracellular domain (recombinant) (Rhesus monkey) (F6SNI1 entry or part of it): as the sequence (P25942 21-193) above, with G43S, H56R, W89L, T92M, A95S, L101P, S106L, H142R, L172Q counted along it

B1: ASKP1240 (antibody, INN chains, looked up, V domains shown)
VH: QLQLQESGPGLLKPSETLSLTCTVSGGSISSPGYYGGWIRQPPGKGLEWIGSIYKSGSTYHNPSLKSRVTISVDTSKNQFSLKLSSVTAADTAVYYCTRPVVRYFGWFDPWGQGTLVTVSS
VL: AIQLTQSPSSLSASVGDRVTITCRASQGISSALAWYQQKPGKAPKLLIYDASNLESGVPSRFSGSGSGTDFTLTISSLQPEDFATYYCQQFNSYPTFGQGTKVEIK
modifications: IgG4
As to B1, the EC50 (read off the curve) in assay [1] is 0.1 µg/mL. In the assay with human CD40 on cells [2], the IC50, HEK-Blue CD40L NF-κB activation assay (SEAP) turned out to be 0.0134 µg/mL and the IC50, HEK-Blue CD40L NF-κB activation assay (SEAP), Fc-3*G4S-CD40L stimulus is 0.0111 µg/mL. In addition, in [3], the EC50 (read off the curve) is 0.1 µg/mL. For the same molecule, in [4], the concentration for a half-maximal effect (EC50) came to 0.211 µg/mL. In addition, in assay [5], the EC50 turned out to be 0.181 µg/mL. In assay [6], the Kd was determined as 2.07 nM, the koff stood at 0.000617 s⁻¹ and the kon was 298000 M⁻¹ s⁻¹.

B2: D11 (antibody, IgG4, V domains shown)
VH: QVQLVQSGAEVKKPGASVKVSCKASVYSFTGYTVNWVRQAPGQRLEWMGLINPYNGGTTYNQKFKGRVTLTIDKSASTAYMELSSLRSEDTAVYYCASSYYSNPYAMDYWGQGTLVTVSS
VL: EIVMTQSPATLSVSPGERATLSCKASQNVHTAVAWYQQKPGQAPRLLIYLASDRRTGIPARFSGSGSGTEFTLTISSLQSEDFAVYYCLQHWNYPLTFGQGTKVEIK
notes: Humanized form of D1; recombined with human IgG constant regions (preferably IgG4 heavy chain and kappa light chain); also called humanized anti-CD40 antibody D11
As for B2, in [7], the binding result is given as “binds”.

B3: D33 (antibody, human IgG4, V domains shown)
VH: B2 VH with Y54L, N103T
VL: B2 VL with A32R
notes: also called optimized anti-CD40 antibody D33
For the molecule B3, in assay [8], the Kd worked out at 1.63 nM, the off-rate constant (koff) stood at 0.000494 s⁻¹ and the kon was 304000 M⁻¹ s⁻¹. In addition, in [9], the “EC50 (read off the curve)” value is about 0.1 µg/mL. In addition, the “IC50, HEK-Blue CD40L NF-κB activation assay (SEAP), antibody as human IgG4” value in the assay with human CD40 on cells [10] was found to be 0.0122 µg/mL. Also, the “EC50 (read off the curve)” value in assay [11] was about 0.2 µg/mL. Also, the binding result with human TNFRSF11A is reported as “no binding (tested: 10 µg/mL)”. For the same molecule, the binding result in the assay with human TNFR2 is listed as “no binding (tested: 10 µg/mL)”.
